Assay [1] deals with T1, human CD3 on the cell surface (Jurkat cells, expanded human T cells, Jurkat-Lucia NFAT cells, human PBMC) (human, UniProt P07766 23-207; P04234 22-171; P09693 23-182).
T1 construct: whole, on cells; Endogenous CD3 within the TCR-CD3 complex on cells (also zeta chains and TCR); the cell type is named under assay
Put plainly: FACS, expanded human T cells. The procedure:
(§1) The binding of the chimeric antibodies to CD3 on the cell surface was analyzed by detecting the binding of the antibodies to Jurkat cells and human T cells. Suspension cells Jurkat cells were scale-up cultured in T-75 cell culture flasks to the logarithmic growth phase, the supernatant of the medium was discarded by centrifugation, and the cell pellet was washed 2 times with PBS for later use. The expanded human T cells were washed 2 times with PBS for later use. After counting the cells in the previous step, the cell pellet was resuspended with [PBS+2% (w/w) BSA] blocking solution to 4×10⁶ cells/ml, and added to a 96-well FACS reaction plate at 50 μl/well, and then the chimeric antibody to be tested was added at 50 μl/well, and incubated at 4° C. for 1 h. The cells were centrifuged and washed 3 times with a PBS buffer. […] The cells were centrifuged and washed 5 times with PBS, and FACS (FACS Canto™, purchased from BD Company) was used for detection and result analysis. Data analysis was performed by software (CellQuest) to obtain the mean fluorescence […] (MFI) of the cells. And then software (GraphPad Prism8) was used for analysis, data fitting, and EC50 value calculation. The same method was used to simultaneously detect the binding of the chimeric antibodies to endogenous CD3 negative cells MOLT4 cells.
(In flow cytometry, cells or beads pass a laser one at a time.)

For assay [2], the target named is T2, cynomolgus monkey CD3 on the surface of expanded monkey T cells (cynomolgus monkey, UniProt Q95LI5 22-198; Q95LI8 22-171; Q95LI7 23-181).
T2 construct: whole, on cells; Endogenous CD3 within the TCR-CD3 complex on T cells expanded from cynomolgus monkey PBMC
Put plainly: FACS, expanded monkey T cells. The procedure: as §1
FACS detection and data analysis were performed on the cryopreserved monkey T cells of Example 2.4 according to the method in Example 5.1.

In assay [3] the target is T1, human CD3 on the cell surface (Jurkat …). The assay is described as follows: FACS, Jurkat cells. The procedure:
as §1

Assay [4] concerns the target T3, recombinant human CD3ε-ECD His protein (human, UniProt P07766 23-126).
T3 construct: extracellular domain; also called human CD3ε-His; CD3ε antigen protein; not shown: His tag
The assay is described as follows: SPR (Biacore), antibody captured on Protein A chip. On the procedure:
Sample buffer and running buffer were HBS-EP+(10 mM HEPES, 150 mM NaCl, 3 mM EDTA, 0.05% surfactant P20) (GE Healthcare; BR-1006-69). The flow-through cell was set to 25° C. The sample block was set to 16° C. Both were pretreated with the running buffer. In each cycle, the antibody to be detected was first captured with a Protein A chip, and then a single concentration of CD3ε antigen protein (purchased from Sino Biological, Inc. (China), catalog number: 10977-H08H) was injected. The binding and dissociation processes of the antibody and the antigen protein were recorded, and finally a glycine solution (pH 1.5, GE Healthcare; BR-1003-54) was used to complete chip regeneration. The binding was measured by injecting different concentrations of recombinant human CD3ε-ECD His proteins in a solution for 240 s with a flow rate of 30 μL/min. The concentration started from 200 nM (see the detailed results for the actual concentration in the test) and was diluted at 1:1, making a total of 5 concentrations. The dissociation phase was monitored for up to 600 s and was triggered by switching from sample solution to running buffer. The surface was regenerated by washing with a 10 mM glycine solution (pH 1.5) for 30 s at a flow rate of 30 μL/min. Bulk refractive index difference was corrected by subtracting the response obtained from the goat anti-human Fc surface. Blank injection was also subtracted (=double reference). For calculation of apparent KD and other kinetic parameters, Langmuir 1:1 model was used.
For orientation: SPR reads the build-up and loss of mass on a sensor chip optically.

For assay [5], the target named is T1, human CD3 on the cell surface (Jurkat …). The assay is described as follows: cell-based or functional assay.
The target in assay [6] is T2, cynomolgus monkey CD3 on the surface of …. The assay is described as follows: FACS, expanded monkey T cells. On the procedure:
as §1
The expanded monkey T cells were collected, and FACS detection and data analysis were performed according to the method in Example 5.1.
The source holds these as a separate data set.

For assay [7], the target named is T4, human CD3ε/δ-His (human, UniProt P07766 23-126; P04234 22-105).
T4 construct: Bought recombinant heterodimer with His tag; also called human CD3ε/δ protein
Put plainly: SPR, antibody captured on Protein A chip. On the procedure:
(§2) Running buffer was HBS-EP+(10 mM HEPES, 150 mM NaCl, 3 mM EDTA, 0.05% surfactant P20) (GE Healthcare; BR-1006-69). The flow-through cell was set to 25° C. The sample block was set to 16° C. Both were pretreated with the running buffer. In each cycle, an antibody to be detected was first captured with a Protein A chip, and then a single concentration of CD3ε antigen protein was injected. The binding and dissociation processes of the antibody and the antigen protein were recorded, and finally Glycine pH 1.5 (GE Healthcare; BR-1003-54) was used to complete chip regeneration. The binding was measured by injecting different concentrations of recombinant human CD3ε proteins in a solution for 240 s with a flow rate of 30 μL/min. The concentration started from 200 nM (see the detailed results for the actual concentration in the test) and was diluted at 1:1, making a total of 5 concentrations. The dissociation phase was monitored for up to 600 s and was triggered by switching from sample solution to running buffer. The surface was regenerated by washing with a 10 mM glycine solution (pH 1.5) for 30 s at a flow rate of 30 μL/min. Bulk refractive index difference was corrected by subtracting the response obtained from the goat anti-human Fc surface, and the blank injection was subtracted at the same time (=double reference). For calculation of apparent KD value and other kinetic parameters, Langmuir 1:1 model was used.

Assay [8] has as its target T3, recombinant human CD3ε-ECD His protein. Put plainly: SPR, antibody captured on Protein A chip. The procedure: as §2
Assay [9] deals with T1, human CD3 on the cell surface (Jurkat …). The assay is described as follows: FACS, expanded human T cells. The procedure: as §1
The expanded human PBMC cells were collected, and FACS detection and data analysis were performed according to the method in Example 5.1.
This is another data set of the same source.

The target of assay [10] is T4, human CD3ε/δ-His. The assay is described as follows: ELISA, coated antigen. On the procedure: (§3) To detect the binding activity of the humanized antibodies to CD3 protein, CD3 protein was diluted with PBS to the final concentration of […], then added to a 96-well ELISA plate at 50 μL/well, and the plate was sealed with a plastic film, and incubated overnight at 4° C. On the next day, the plate was washed 2 times with PBS, and a blocking solution [PBS+2% (v/v) BSA] was added for blocking at room temperature for 2 h. The blocking solution was poured off, and the antibody (initial concentration of 100 nM, and gradient dilution at 1:10) or a negative control antibody was added at 50 µl/well. After incubation at 37° C. for 2 h, the plate was washed 3 times with PBS. […] TMB substrate was added at 50 μl/well, and incubated at room temperature for 10 min, and then a stop solution (1.0 N HCl) was added at 50 μl/well. The OD450 nm values were read by an ELISA microplate reader (Multimode Plate Reader, EnSight, purchased from Perkin Elmer).
(In general: In an ELISA, binding on a coated surface is turned into a signal by an enzyme label.)

The target in assay [11] is T3, recombinant human CD3ε-ECD His protein. Put plainly: ELISA, coated antigen. The procedure: as §3
Assay [12] deals with T5, monkey CD3ε protein (monkey, UniProt Q95LI5 22-117, limits assumed).
T5 sequence (looked up): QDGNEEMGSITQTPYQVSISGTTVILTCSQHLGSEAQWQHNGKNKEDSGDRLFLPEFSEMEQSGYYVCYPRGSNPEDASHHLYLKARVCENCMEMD
Put plainly: ELISA, coated antigen. The procedure:
as §3
(§4) To detect the binding activity of the humanized antibodies to monkey CD3 protein, CD3 protein was diluted with PBS to the final concentration of […], and then added to a 96-well ELISA plate at 50 μl/well.

The target of assay [13] is T6, monkey CD3ε/δ-His (monkey, UniProt Q95LI5 22-117; Q95LI8 22-105).
T6 construct: Bought recombinant heterodimer with His tag
Put plainly: ELISA, coated antigen. The procedure:
as §3, §4

Where two headings read alike, the source gives them in different places.

T2 sequence (Q95LI5 22-198, chain 1 of 3): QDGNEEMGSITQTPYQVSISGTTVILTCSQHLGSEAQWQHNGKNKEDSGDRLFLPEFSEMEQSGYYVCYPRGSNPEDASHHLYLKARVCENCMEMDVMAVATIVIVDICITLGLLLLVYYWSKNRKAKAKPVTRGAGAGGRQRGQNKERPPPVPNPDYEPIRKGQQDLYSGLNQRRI
T2 sequence (Q95LI8 22-171, chain 2 of 3): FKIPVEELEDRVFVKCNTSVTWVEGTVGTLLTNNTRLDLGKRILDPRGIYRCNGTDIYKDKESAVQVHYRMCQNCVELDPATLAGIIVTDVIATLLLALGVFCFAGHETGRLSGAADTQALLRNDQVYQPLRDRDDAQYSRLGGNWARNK
T2 sequence (Q95LI7 23-181, chain 3 of 3): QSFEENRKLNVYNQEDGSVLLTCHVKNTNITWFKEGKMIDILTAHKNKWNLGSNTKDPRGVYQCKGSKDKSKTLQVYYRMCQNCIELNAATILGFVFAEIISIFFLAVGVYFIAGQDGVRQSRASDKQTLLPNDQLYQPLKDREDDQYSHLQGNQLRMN
T3 sequence (P07766 23-126): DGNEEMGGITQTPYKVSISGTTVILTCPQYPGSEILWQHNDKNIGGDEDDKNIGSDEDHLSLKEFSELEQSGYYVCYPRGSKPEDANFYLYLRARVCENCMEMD
T4 sequence (P07766 23-126, stated change not applied, form in doubt, chain 1 of 2): as the sequence (P07766 23-126) above
T4 sequence (P04234 22-105, stated change not applied, form in doubt, chain 2 of 2): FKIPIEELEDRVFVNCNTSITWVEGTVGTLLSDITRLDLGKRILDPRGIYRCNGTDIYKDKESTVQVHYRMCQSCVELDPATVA
T1 sequence (P07766 23-207, chain 1 of 3): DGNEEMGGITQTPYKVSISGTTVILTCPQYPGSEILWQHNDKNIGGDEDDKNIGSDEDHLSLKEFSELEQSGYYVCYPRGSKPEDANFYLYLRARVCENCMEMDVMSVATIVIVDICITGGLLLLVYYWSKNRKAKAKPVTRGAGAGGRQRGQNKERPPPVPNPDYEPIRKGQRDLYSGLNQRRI
T1 sequence (P04234 22-171, chain 2 of 3): as the sequence (Q95LI8 22-171, chain 2 of 3) above, with V5I, K15N, V20I, T32S, N33D, N34I, A64T, N74S, L83V, R141H counted along it
T1 sequence (P09693 23-182, chain 3 of 3): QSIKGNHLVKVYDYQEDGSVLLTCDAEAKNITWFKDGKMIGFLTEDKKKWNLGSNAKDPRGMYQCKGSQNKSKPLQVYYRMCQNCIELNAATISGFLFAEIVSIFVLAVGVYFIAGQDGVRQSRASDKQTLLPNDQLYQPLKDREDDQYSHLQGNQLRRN
T6 sequence (Q95LI8 22-105, stated change not applied, form in doubt, chain 2 of 2, one chain of several): as the sequence (P04234 22-105, stated change not applied, form in doubt, chain 2 of 2) above, with I5V, N15K, I20V, S32T, D33N, I34N, T64A, S74N, V83L counted along it

B1: 5-7.13 human-murine chimeric antibody (antibody, human IgG1, kappa, V domains shown)
VH: QVQLQQPGTELVKPGASVKLSCKASGYTFTSYWVHWVKQRPGQGLEWIGNINPSDGVTNYNEKFKSRATLTVDKSSSTAYMQLSSLTSEDSAVYYCTRDAYGQYYFDDWGQGTTLTVSS
VL: DIVMSQSPSSLVVSAGEKVTMSCKSSQSLLNSRTRKNYLAWYQQKPGQSPKLLIYWASVRDSGVPDRFTGSGSGTDFTLTISNVQAEDLAVYYCIQSYYLRTFGGGTILEIKR
notes: Human IgG1 chimera
One may read the EC50 as the concentration needed to bring the measured effect to its halfway point. In general, Kd refers to a measure of binding affinity in units of concentration. Broadly, the koff is a measure of how fast the partners let go of each other. For orientation: kon means the rate constant with which the complex forms. B1: in [1], the EC50 worked out at 0.1 nM and the MFI_Max was found to be 15900 MFI. Also, in assay [2], the midpoint of the response, the EC50, lay at 0.09 nM and the MFI_Max amounted to 26500 MFI. In addition, in [3], the response was half-maximal at 0.06 nM (EC50) and the MFI_Max is 32200 MFI. In assay [4], the Kd came out at 0.345 nM, the koff worked out at 0.00027 s⁻¹ and the kon is 785000 M⁻¹ s⁻¹. For the same molecule, in assay [5], the “EC50 (nM), luciferase reporter, Jurkat-Lucia NFAT cells” value (“EC50 (nM), luciferase reporter” for short) turned out to be 0.7 nM and the “Maximum response value (RLU)” value was found to be 55400 RLU.

B2: 5-40.21 human-murine chimeric antibody (antibody, human IgG1, kappa, V domains shown)
VH: QVQLQQPGSELVRPGASVKLSCKASGYTFTSYWMHWVKQRPGQGLEWIGNTYPGSGSTNYDEKFKSKATLTVDSSSSTAYMQLSSLTSEDSAVYYCTRDRYGVYYFDYWGQGTTLTVSS
VL: DIVMSQSPSSLAVSAGEKVTMSCKSSQSLLNSRTRKNYLAWYQQKPGQSPKLLIYWASTRESGVPDRFSGSGSGTDFTLTISSVQAEDLAVYYCTQSYNLRTFGGGTKLEIKR
notes: Human IgG1 chimera
In assay [1], B2 registered a half-maximal effective concentration (EC50) of 0.99 nM and an MFI_Max of 11400 MFI. In assay [2], the EC50 stood at 1.09 nM and the MFI_Max was found to be 24400 MFI. In assay [3], this molecule showed an EC50 of 0.44 nM and an MFI_Max of 26700 MFI. Besides, in assay [4], the dissociation constant Kd was determined as 0.553 nM, the koff was 0.000379 s⁻¹ and the kon was 686000 M⁻¹ s⁻¹. In [5], the “EC50 (nM), luciferase reporter” value was 4.79 nM and the “Maximum response value (RLU)” value stood at 46200 RLU.

B3: 6-44.5 human-murine chimeric antibody (antibody, human IgG1, kappa, V domains shown)
VH: EVQLQQSGPELVKPGASVKMSCKASGHTFTSHIMHWVKQKPGQGLEWIGYINPNNDRTEYSEKFKGKATLTSDKSSSTAYMELSSLTSEDSAVYYCAGEAYYSNSLYAMDYWGQGTSVTVSS
VL: DIVMSQSPSSLAVSAGEKVTMSCKSSQSLFNSRTRKNYLAWYQQKPGQSPELLIYWASTRESGVPVRFTGSGSGTDFTLTISSVQAEDLAVYYCKQSYYLRTFGGGTKLEVKR
notes: Human IgG1 chimera
Regarding B3, in assay [1], the EC50 was found to be 0.62 nM and the MFI_Max worked out at 13300 MFI. In assay [2], this molecule came in with an EC50 of 0.42 nM and an MFI_Max of 27100 MFI. In [3], this molecule had an EC50 of 0.15 nM and an MFI_Max of 31700 MFI. Also, in assay [4], the Kd came out at 0.445 nM, the koff is 0.000259 s⁻¹ and the kon is 581000 M⁻¹ s⁻¹. For the same molecule, in assay [5], the “EC50 (nM), luciferase reporter” value came out at 1.84 nM and the “Maximum response value (RLU)” value came to 33600 RLU.

B4: 5-40.21-H3-L1 humanized antibody (antibody, human IgG1, kappa, V domains shown)
VH: EVQLVQSGAEVKKPGASVKVSCKASGYTFTSYWMHWVRQAPGQGLEWMGNTYPGSGSTNYDEKFKSRVTITVDSSASTAYMELSSLRSEDTAVYYCTRDRYGVYYFDYWGQGTTVTVSS
VL: DIVMTQSPDSLAVSLGERATINCKSSQSLLNSRTRKNYLAWYQQKPGQSPKLLIYWASTRESGVPDRFSGSGSGTDFTLTISSLQAEDVAVYYCTQSYNLRTFGGGTKVEIKR
With B4, the half-maximal effective concentration (EC50) came to 0.73 nM in assay [6]; 1.65 nM in assay [9]; 0.28 nM in [10]; 0.13 nM in assay [11]; 0.000467 nM in [12]; 0.00456 nM in assay [13]. Besides, the figures for the max_MFI in assay [6] and in [9] were 17800 MFI and 18000 MFI, respectively. The dissociation constant (Kd) was 115 nM in assay [7] and 1.87 nM in assay [8]. Moreover, the koff in [7] turned out to be 0.0184 s⁻¹; in assay [8], 0.000485 s⁻¹. Further, the kon in assay [7] was 161000 M⁻¹ s⁻¹; in [8], 260000 M⁻¹ s⁻¹. Besides, the max-OD450 in assay [10] was found to be 3.15 OD450; in assay [11], 1.53 OD450; in [12], 2.84 OD450; in [13] it was 3.16 OD450.

Values taken from patent publication US20250136687A1 (SHANDONG SIMCERE BIOPHARMACEUTICAL, published 2025).
